T1: MmLARK (Mus musculus, UniProt Q8C7Q4 1-361)
T1 sequence: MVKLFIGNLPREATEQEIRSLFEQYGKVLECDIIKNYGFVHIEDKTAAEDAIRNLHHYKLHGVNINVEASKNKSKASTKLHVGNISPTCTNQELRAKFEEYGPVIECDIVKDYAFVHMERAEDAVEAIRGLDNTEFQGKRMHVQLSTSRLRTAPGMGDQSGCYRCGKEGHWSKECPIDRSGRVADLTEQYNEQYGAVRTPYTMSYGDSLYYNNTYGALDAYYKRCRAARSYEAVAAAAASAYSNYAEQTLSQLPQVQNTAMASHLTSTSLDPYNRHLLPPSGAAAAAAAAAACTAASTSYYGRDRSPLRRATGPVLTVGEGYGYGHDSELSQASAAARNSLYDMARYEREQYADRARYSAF

B1: BmPOUM2 G4 (structured_DNA)
DNA: CCAGTGCGGGGCGCGAGGGGGCCGAGGGGCGGGGCAACAA
B2: c-kit G4 (structured_DNA)
DNA: TTTTTCGGGCGGGCGCGAGGGAGGGG
B3: c-MYC G4 (structured_DNA)
DNA: TTATGGGGAGGGTGGGGAGGGTGGGGAAGG
B4: BmPOUM2 ssDNA (mutant G4) (ssDNA)
DNA: CCAGTGCGATGCGCGAGTGAGCCGAGTAGCAGTGCAACAA
B5: 142 ssDNA (mutant G4) (ssDNA)
DNA: GTGTCGCAGTGCCACAGTGTGCTGAGCAGTGTCCGCG
B6: 159 ssDNA (mutant G4) (ssDNA)
DNA: GGCAGTGTCAGTGAGACAGAGCAGTGTGTGCGG
B7: 558 ssDNA (mutant G4) (ssDNA)
DNA: GGTACTGTGATGCAAGTGCGGCAGTGAGCGCAGTGTGG
B8: 142 G4 (structured_DNA)
DNA: GGGTCGCGGGGCCACGGGGGGCGGGGCGGGGGCCGCG
B9: 159 G4 (structured_DNA)
DNA: GGCGGGGGCGGGGGGACGGGGCGGGGGGGGCGG
B10: 558 G4 (structured_DNA)
DNA: GGTACGGGGGTGCAGGGGCGGCGGGGGGCGCGGGGTGG
B11: HIF-1a G4 (structured_DNA)
DNA: GCGAGGGCGGGGGAGAGGGGAGGGGCGCG

biological target: T1, MmLARK; assay: EMSA

| Binder | binding result |
| --- | --- |
| B1 | binds |
| B2 | binds |
| B3 | binds |

biological target: BmLARK ZnF (Bombyx mori, UniProt Q5I7M6 155-343); assay: EMSA

| Binder | binding result |
| --- | --- |
| B1 | no binding |

biological target: T2, BmLARK (Bombyx mori (cDNA from Bm12 cells), UniProt Q5I7M6 1-343); assay: EMSA

| Binder | binding result |
| --- | --- |
| B4 | no binding |
| B5 | no binding |
| B6 | no binding |
| B7 | no binding |

biological target: HsLARK (Homo sapiens, UniProt Q9BWF3 1-364); assay: EMSA

| Binder | binding result |
| --- | --- |
| B1 | binds |
| B2 | binds |
| B3 | binds |

biological target: DmLARK (Drosophila melanogaster, UniProt Q94901 1-352); assay: EMSA
Sequence (Q94901 whole entry): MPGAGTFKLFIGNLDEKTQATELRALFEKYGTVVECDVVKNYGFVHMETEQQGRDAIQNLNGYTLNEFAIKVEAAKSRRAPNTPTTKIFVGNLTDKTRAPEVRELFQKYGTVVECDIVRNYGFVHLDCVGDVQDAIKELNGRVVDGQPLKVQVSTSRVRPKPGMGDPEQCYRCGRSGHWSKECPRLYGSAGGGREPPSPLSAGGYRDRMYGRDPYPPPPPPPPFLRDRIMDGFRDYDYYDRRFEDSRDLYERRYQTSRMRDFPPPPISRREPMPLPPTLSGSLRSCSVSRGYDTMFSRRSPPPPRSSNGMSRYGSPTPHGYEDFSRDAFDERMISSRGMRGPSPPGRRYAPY

| Binder | binding result |
| --- | --- |
| B1 | binds |

biological target: T2, BmLARK; assay: MST

| Binder | Kd |
| --- | --- |
| B1 | 111 nM |
| B8 | 107 nM |
| B9 | 114 nM |
| B10 | 120 nM |
| B2 | 126 nM |
| B3 | 269 nM |
| B11 | 131 nM |
